# Publication PMC6919630, “Novel cholinesterase paralogs of Schistosoma mansoni have perceived roles in cholinergic signalling and drug detoxification and are essential for parasite survival” (PLoS Pathogens, 2019)
# Columns and labels:
# [1] = target: T1, SmAChE2 (Schistosoma mansoni, UniProt A0A3Q0KMM5); assay: Ellman assay, inhibition of AcSCh hydrolysis; format: biochemical; settings: AcSCh 2 mM; 20 min preincubation at RT; pH 7.4; organophosphate
# T1 construct: full length minus signal peptide, C-terminal 6-His tag (pPICZalphaA), secreted from Pichia pastoris X-33, IMAC purified; synthetic ORF
# T1 sequence (A0A3Q0KMM5 entry or part of it): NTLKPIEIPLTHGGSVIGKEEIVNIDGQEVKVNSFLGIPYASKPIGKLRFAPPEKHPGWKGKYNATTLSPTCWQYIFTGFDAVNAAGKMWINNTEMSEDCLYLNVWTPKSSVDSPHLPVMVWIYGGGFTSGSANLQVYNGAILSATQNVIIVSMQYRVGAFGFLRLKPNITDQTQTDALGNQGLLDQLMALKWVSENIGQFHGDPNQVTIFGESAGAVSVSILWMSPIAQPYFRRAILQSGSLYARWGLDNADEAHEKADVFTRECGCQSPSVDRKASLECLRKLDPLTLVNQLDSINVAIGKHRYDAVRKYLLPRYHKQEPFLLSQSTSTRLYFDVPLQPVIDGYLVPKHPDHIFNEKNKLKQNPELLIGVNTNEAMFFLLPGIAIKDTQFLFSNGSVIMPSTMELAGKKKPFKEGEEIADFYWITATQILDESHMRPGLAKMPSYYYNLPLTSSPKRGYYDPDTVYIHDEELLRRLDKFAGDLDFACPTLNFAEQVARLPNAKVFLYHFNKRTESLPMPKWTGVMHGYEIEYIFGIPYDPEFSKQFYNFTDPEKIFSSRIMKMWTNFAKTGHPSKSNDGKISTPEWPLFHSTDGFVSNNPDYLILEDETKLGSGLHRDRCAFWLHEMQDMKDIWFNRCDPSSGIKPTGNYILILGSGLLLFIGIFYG
# [2] = target: T2, SmAChE1 (Schistosoma mansoni, UniProt Q71SU7); assay: Ellman assay, inhibition of AcSCh hydrolysis; format: biochemical; settings: AcSCh 2 mM; 20 min preincubation at RT; pH 7.4; organophosphate
# T2 construct: full length minus signal peptide, C-terminal 6-His tag (pPICZalphaA), secreted from Pichia pastoris X-33, IMAC purified; synthetic ORF
# T2 sequence (Q71SU7 entry or part of it): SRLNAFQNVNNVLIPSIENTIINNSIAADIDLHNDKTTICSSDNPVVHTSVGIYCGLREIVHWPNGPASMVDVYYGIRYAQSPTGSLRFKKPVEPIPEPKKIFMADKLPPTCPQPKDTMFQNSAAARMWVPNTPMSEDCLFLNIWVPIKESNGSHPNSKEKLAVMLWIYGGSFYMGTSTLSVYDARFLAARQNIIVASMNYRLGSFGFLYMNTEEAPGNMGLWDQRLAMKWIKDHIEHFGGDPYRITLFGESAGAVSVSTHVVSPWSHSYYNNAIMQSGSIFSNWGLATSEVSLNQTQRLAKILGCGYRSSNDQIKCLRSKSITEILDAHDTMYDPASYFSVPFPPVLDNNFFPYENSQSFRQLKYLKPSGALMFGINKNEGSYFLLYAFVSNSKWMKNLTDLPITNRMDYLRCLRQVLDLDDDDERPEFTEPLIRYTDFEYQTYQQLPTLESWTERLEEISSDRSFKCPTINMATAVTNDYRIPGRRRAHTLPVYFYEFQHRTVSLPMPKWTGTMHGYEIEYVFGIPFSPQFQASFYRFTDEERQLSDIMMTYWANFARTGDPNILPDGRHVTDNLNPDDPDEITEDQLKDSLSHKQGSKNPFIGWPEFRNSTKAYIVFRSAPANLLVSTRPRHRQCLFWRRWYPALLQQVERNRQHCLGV
# [3] = target: T3, SmBChE1 (Schistosoma mansoni, UniProt A0A3Q0KKW0); assay: Ellman assay, inhibition of BcSCh hydrolysis; format: biochemical; settings: BcSCh 2 mM; 20 min preincubation at RT; pH 7.4; organophosphate
# T3 construct: full length minus signal peptide, C-terminal 6-His tag (pPICZalphaA), secreted from Pichia pastoris X-33, IMAC purified; synthetic ORF
# T3 sequence (A0A3Q0KKW0 entry or part of it): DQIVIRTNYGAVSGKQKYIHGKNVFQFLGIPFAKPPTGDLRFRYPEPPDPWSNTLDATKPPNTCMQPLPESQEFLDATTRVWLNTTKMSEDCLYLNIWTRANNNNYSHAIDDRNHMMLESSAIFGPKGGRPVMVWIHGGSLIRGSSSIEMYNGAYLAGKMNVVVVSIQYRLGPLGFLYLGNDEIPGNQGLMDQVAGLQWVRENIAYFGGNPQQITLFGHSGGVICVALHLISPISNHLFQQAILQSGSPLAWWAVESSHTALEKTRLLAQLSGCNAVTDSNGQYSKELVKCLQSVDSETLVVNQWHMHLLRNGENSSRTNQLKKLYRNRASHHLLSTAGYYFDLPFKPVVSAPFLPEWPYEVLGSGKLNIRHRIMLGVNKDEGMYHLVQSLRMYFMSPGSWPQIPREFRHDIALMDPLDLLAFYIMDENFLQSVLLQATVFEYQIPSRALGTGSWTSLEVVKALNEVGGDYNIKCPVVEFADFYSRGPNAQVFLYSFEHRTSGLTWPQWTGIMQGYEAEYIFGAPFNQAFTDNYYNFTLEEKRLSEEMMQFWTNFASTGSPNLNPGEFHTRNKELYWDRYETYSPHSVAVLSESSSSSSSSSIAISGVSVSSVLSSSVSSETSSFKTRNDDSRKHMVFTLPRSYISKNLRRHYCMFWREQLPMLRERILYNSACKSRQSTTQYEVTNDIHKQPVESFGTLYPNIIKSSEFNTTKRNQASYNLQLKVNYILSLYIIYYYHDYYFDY
# [4] = target: T3, SmBChE1; assay: Ellman assay, inhibition of BcSCh hydrolysis; format: biochemical; settings: BcSCh 2 mM; 20 min preincubation at RT; pH 7.4
# [5] = tested on: CC(=O)SCC[N+](C)(C)C; assay: purified protein; format: biochemical, Schistosoma mansoni; settings: 0.1 M sodium phosphate, pH 7.4, 0.5 mM DTNB
# [6] = tested on: CCCC(=O)SCC[N+](C)(C)C; assay: purified protein; format: biochemical, Schistosoma mansoni; settings: 0.1 M sodium phosphate, pH 7.4, 0.5 mM DTNB
compound,measurement,setting,value
"COP(=O)(OC)OC=C(Cl)Cl [DDVP, 2,2-dichlorovinyl dimethyl phosphate]",inhibition at 1 μM,[1],preferred substrate activity of both SmAChE1 and SmAChE2 was inhibited by DDVP
same,inhibition at 1 μM,[2],preferred substrate activity of both SmAChE1 and SmAChE2 was inhibited by DDVP
same,"inhibition at 1, 5 and 10 μM",[3],BChE activity of schistosome extracts and recombinant SmBChE1 significantly decreased in the presence of
CC(C)NP(=O)(NC(C)C)OP(=O)(NC(C)C)NC(C)C [iso-OMPA],inhibition at 1 mM,[4],"iso-OMPA, a specific inhibitor of BChE, only inhibited SmBChE1 activity"
SmAChE1 (Schistosoma mansoni),Km,[5],5.83 ± 1.62 mM
same,Vmax,[5],0.00557 µmol/min/mg
SmAChE2 (Schistosoma mansoni),Km,[5],10.87 ± 6.17 mM
same,Vmax,[5],0.00559 µmol/min/mg
SmBChE1 (Schistosoma mansoni),Km,[6],34.38 ± 12.71 mM
same,Vmax,[6],0.0017 ± 9e-05 µmol/min/mg
